In the supplement of paper PMC10126150:
± gives the standard deviation of the averaged measurements.

System: ATP
Assay: switch fluorescence ratio, 500 uM ATP over buffer (Cy3 cluster intensity, sum of 5 cycles each) (fold (ratio)); higher = stronger signal-on switching upon ATP binding; sequences stand for … in TCGTCGGCAGCGTCAGATGTGTATAAGAGACAGTTTTTTTTTTTTTTTTTTTTTTTTT…TC
Settings: aptamer strand: ATP DNA aptamer (quencher-CACCTGGGGGAGTATTGCGGAGGAAGG + anchor), 100 nM annealed; ATP concentration: 500 uM
Outline: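 Five buffer/ATP imaging cycles were run on Cy3-labelled switching-strand clusters on a modified Illumina MiSeq flow-cell, with NaOH stripping and re-annealing between cycles. In each cycle, clusters annealed to 100 nM quencher-labelled ATP aptamer were imaged in selection buffer, then after 15 min with 500 uM ATP at 22 °C. Per cluster, the fluorescence ratio is summed target-cycle over summed buffer-cycle Cy3 intensity, averaged per switch-domain sequence. Only clusters within 100-1000 RFU were kept.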
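Note: ATP exposure 15 min at 22 °C before imaging.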

TTATTCAAAT
switch fluorescence ratio: 1.02 ± 0.035

TTATTCGGGA
switch fluorescence ratio: 1.02 ± 0.031

TTATTCTCAC
switch fluorescence ratio: 1.031 ± 0.0064

TTATTCTGCT
switch fluorescence ratio: 1.03 ± 0.03

TTATTGAAA
switch fluorescence ratio: 1.023 ± 0.0033

TTATTGAAAA
switch fluorescence ratio: 1 ± 0.032

TTATTGACGT
switch fluorescence ratio: 1.003 ± 0.0024

TTATTGGCAA
switch fluorescence ratio: 1.29 ± 0.34

TTATTGTAT
switch fluorescence ratio: 0.988 ± 0.043

TTATTGTGCT
switch fluorescence ratio: 0.983 ± 0.031

TTATTGTGGA
switch fluorescence ratio: 0.9885 ± 0.0023

TTATTGTTGG
switch fluorescence ratio: 0.974 ± 0.014

TTATTGTTGT
switch fluorescence ratio: 1 ± 0.014

TTATTTAATT
switch fluorescence ratio: 0.998 ± 0.027

TTATTTAGAC
switch fluorescence ratio: 1 ± 0.024

TTATTTAGGA
switch fluorescence ratio: 0.989 ± 0.027

TTATTTCATG
switch fluorescence ratio: 0.984 ± 0.022

TTATTTGAAT
switch fluorescence ratio: 1.011 ± 0.0027

TTATTTGGGG
switch fluorescence ratio: 1.01 ± 0.056

TTATTTGTGT
switch fluorescence ratio: 0.987 ± 0.042

TTATTTTCGT
switch fluorescence ratio: 0.973 ± 0.018

TTATTTTGAC
switch fluorescence ratio: 1 ± 0.023

TTATTTTTAG
switch fluorescence ratio: 1.01 ± 0.035

TTATTTTTGT
switch fluorescence ratio: 1.01 ± 0.026

TTCAAAATAG
switch fluorescence ratio: 1.12 ± 0.15

TTCAAAGAGT
switch fluorescence ratio: 0.994 ± 0.019

TTCAAAGGCC
switch fluorescence ratio: 0.981 ± 0.049

TTCAAAGGGG
switch fluorescence ratio: 1.09 ± 0.24

TTCAAAGGTG
switch fluorescence ratio: 1.41 ± 0.16

TTCAAGACGG
switch fluorescence ratio: 0.995 ± 0.023

TTCAAGTTAG
switch fluorescence ratio: 1 ± 0.035

TTCAATATGT
switch fluorescence ratio: 0.991 ± 0.049

TTCAATGGAA
switch fluorescence ratio: 1.03 ± 0.011

TTCAATGGCT
switch fluorescence ratio: 0.983 ± 0.046

TTCAATGGGC
switch fluorescence ratio: 0.998 ± 0.064

TTCAATTGGT
switch fluorescence ratio: 0.974 ± 0.033

TTCAATTTGC
switch fluorescence ratio: 1.02 ± 0.033

TTCACGGACC
switch fluorescence ratio: 1.455 ± 0.013

TTCAGAAATT
switch fluorescence ratio: 1.01 ± 0.011

TTCAGAGACT
switch fluorescence ratio: 1 ± 0.034

TTCAGATACC
switch fluorescence ratio: 1.04 ± 0.017

TTCAGCATTT
switch fluorescence ratio: 1.1 ± 0.068

TTCAGCGCGA
switch fluorescence ratio: 1.14 ± 0.014

TTCAGGACTC
switch fluorescence ratio: 0.973 ± 0.045

TTCAGGATTA
switch fluorescence ratio: 0.9939 ± 0.0091

TTCAGGGGAG
switch fluorescence ratio: 0.975 ± 0.04

TTCAGGGGCG
switch fluorescence ratio: 1.07 ± 0.13

TTCAGGGTAT
switch fluorescence ratio: 1.01 ± 0.037

TTCAGGTAAC
switch fluorescence ratio: 1.054 ± 0.0022

TTCAGGTGGT
switch fluorescence ratio: 1.06 ± 0.13

TTCAGGTTCT
switch fluorescence ratio: 1 ± 0.04

TTCAGGTTTC
switch fluorescence ratio: 1 ± 0.037

TTCAGTGTCG
switch fluorescence ratio: 1.01 ± 0.073

TTCAGTTAAT
switch fluorescence ratio: 1 ± 0.0032

TTCATATAGG
switch fluorescence ratio: 0.984 ± 0.021

TTCATATATG
switch fluorescence ratio: 0.989 ± 0.018

TTCATATTG
switch fluorescence ratio: 0.9923 ± 0.0019

TTCATCCGGT
switch fluorescence ratio: 1.52 ± 0.091

TTCATCGTAT
switch fluorescence ratio: 1.01 ± 0.015

TTCATGAGTG
switch fluorescence ratio: 0.9696 ± 0.0051

TTCATTACGT
switch fluorescence ratio: 0.996 ± 0.029

TTCATTGAGT
switch fluorescence ratio: 1.028 ± 0.0048

TTCATTGGGG
switch fluorescence ratio: 0.99 ± 0.018

TTCATTTCTG
switch fluorescence ratio: 1.02 ± 0.039

TTCATTTGTT
switch fluorescence ratio: 1.11 ± 0.16

TTCATTTTAG
switch fluorescence ratio: 1.02 ± 0.031

TTCCAAAAGG
switch fluorescence ratio: 1.02 ± 0.054

TTCCACTTGA
switch fluorescence ratio: 1.04 ± 0.047

TTCCAGATTC
switch fluorescence ratio: 0.964 ± 0.013

TTCCAGGCAA
switch fluorescence ratio: 4.47 ± 0.45

TTCCAGGGGG
switch fluorescence ratio: 1.08 ± 0.089

TTCCATATGT
switch fluorescence ratio: 0.975 ± 0.021

TTCCATGAGT
switch fluorescence ratio: 0.963 ± 0.019

TTCCCATTTT
switch fluorescence ratio: 0.995 ± 0.013

TTCCCCAGGG
switch fluorescence ratio: 3.63 ± 1.6

TTCCCGGCAG
switch fluorescence ratio: 1.38 ± 0.47

TTCCCGGGGA
switch fluorescence ratio: 1.24 ± 0.4

TTCCCTAATC
switch fluorescence ratio: 1.02 ± 0.067

TTCCCTAGTT
switch fluorescence ratio: 1.004 ± 0.0029

TTCCGAAAGA
switch fluorescence ratio: 1.11 ± 0.066

TTCCGATGGA
switch fluorescence ratio: 1.33 ± 0.26

TTCCGGAAAA
switch fluorescence ratio: 1.01 ± 0.05

TTCCGGAGGG
switch fluorescence ratio: 1.02 ± 0.063

TTCCGGCGGA
switch fluorescence ratio: 1.08 ± 0.026

TTCCGGGCCC
switch fluorescence ratio: 1.16 ± 0.041

TTCCGGGCTG
switch fluorescence ratio: 1 ± 0.02

TTCCGGGGAT
switch fluorescence ratio: 1.04 ± 0.044

TTCCGGGGGT
switch fluorescence ratio: 1 ± 0.015

TTCCGGTTCT
switch fluorescence ratio: 1.03 ± 0.013

TTCCGTATTT
switch fluorescence ratio: 1.15 ± 0.012

TTCCGTTCAG
switch fluorescence ratio: 1.03 ± 0.0075

TTCCGTTGGG
switch fluorescence ratio: 1.028 ± 0.0032

TTCCTACGAT
switch fluorescence ratio: 1.42 ± 0.56

TTCCTATGTG
switch fluorescence ratio: 1.01 ± 0.036

TTCCTCCCCT
switch fluorescence ratio: 1.7 ± 0.82

TTCCTCGCTT
switch fluorescence ratio: 2.75 ± 1.6

TTCCTGAGTT
switch fluorescence ratio: 1.16 ± 0.21

TTCCTTTAGG
switch fluorescence ratio: 0.98 ± 0.06

TTCCTTTTAC
switch fluorescence ratio: 1.16 ± 0.008

TTCGAAGGAA
switch fluorescence ratio: 1.1 ± 0.028

TTCGACCTAG
switch fluorescence ratio: 0.986 ± 0.014

TTCGACTAGC
switch fluorescence ratio: 1.03 ± 0.03

TTCGAGCCGA
switch fluorescence ratio: 1.029 ± 0.0064

TTCGAGGGGG
switch fluorescence ratio: 1.01 ± 0.031

TTCGCAACAG
switch fluorescence ratio: 2.19 ± 0.67

TTCGCAGTCA
switch fluorescence ratio: 1.03 ± 0.052

TTCGCCAATG
switch fluorescence ratio: 1.07 ± 0.03

TTCGCGCGGT
switch fluorescence ratio: 1.04 ± 0.077

TTCGCGCTTT
switch fluorescence ratio: 1 ± 0.036

TTCGCTACGG
switch fluorescence ratio: 1.05 ± 0.029

TTCGCTGGTA
switch fluorescence ratio: 1.15 ± 0.22

TTCGGAGGGC
switch fluorescence ratio: 0.996 ± 0.031

TTCGGCTGCA
switch fluorescence ratio: 1.08 ± 0.064

TTCGGGACCC
switch fluorescence ratio: 1.08 ± 0.1

TTCGGGAGCC
switch fluorescence ratio: 1 ± 0.024

TTCGGGATCG
switch fluorescence ratio: 0.981 ± 0.057

TTCGGGATTG
switch fluorescence ratio: 0.997 ± 0.024

TTCGGGCAGG
switch fluorescence ratio: 1.06 ± 0.054

TTCGGGCCGA
switch fluorescence ratio: 0.998 ± 0.017

TTCGGGCGAT
switch fluorescence ratio: 1.01 ± 0.013

TTCGGGCTGT
switch fluorescence ratio: 0.996 ± 0.011

TTCGGGGAT
switch fluorescence ratio: 0.982 ± 0.032

TTCGGGGCGC
switch fluorescence ratio: 1.03 ± 0.065

TTCGGGGCTT
switch fluorescence ratio: 0.983 ± 0.035

TTCGGGTATT
switch fluorescence ratio: 1.1 ± 0.2

TTCGGGTGGT
switch fluorescence ratio: 1.04 ± 0.05

TTCGGGTTTG
switch fluorescence ratio: 1 ± 0.034

TTCGGTAAGG
switch fluorescence ratio: 1.02 ± 0.013

TTCGGTAGCG
switch fluorescence ratio: 0.996 ± 0.046

TTCGGTCGGG
switch fluorescence ratio: 0.987 ± 0.028

TTCGGTTACG
switch fluorescence ratio: 1.01 ± 0.011

TTCGGTTGTG
switch fluorescence ratio: 0.96 ± 0.013

TTCGGTTTGG
switch fluorescence ratio: 0.9952 ± 0.0061

TTCGGTTTTC
switch fluorescence ratio: 0.984 ± 0.033

TTCGGTTTTG
switch fluorescence ratio: 0.993 ± 0.031

TTCGGTTTTT
switch fluorescence ratio: 1.02 ± 0.011

TTCGTAAAAA
switch fluorescence ratio: 1.09 ± 0.089

TTCGTACTAT
switch fluorescence ratio: 0.993 ± 0.039

TTCGTAGTGG
switch fluorescence ratio: 1 ± 0.013

TTCGTAGTTT
switch fluorescence ratio: 0.964 ± 0.023

TTCGTATTGT
switch fluorescence ratio: 0.975 ± 0.018

TTCGTCCTGG
switch fluorescence ratio: 1.01 ± 0.056

TTCGTCGGTA
switch fluorescence ratio: 1.09 ± 0.15

TTCGTCTTTT
switch fluorescence ratio: 0.98 ± 0.016

TTCGTGGCCC
switch fluorescence ratio: 0.9572 ± 0.003

TTCGTGGGTG
switch fluorescence ratio: 1.03 ± 0.075

TTCGTGTTAT
switch fluorescence ratio: 0.995 ± 0.021

TTCGTTAGCG
switch fluorescence ratio: 0.996 ± 0.022

TTCGTTATAC
switch fluorescence ratio: 2.29 ± 1.1

TTCGTTCCGT
switch fluorescence ratio: 1.03 ± 0.019

TTCGTTCTTT
switch fluorescence ratio: 1.005 ± 0.0043

TTCTAAAAAG
switch fluorescence ratio: 0.995 ± 0.035

TTCTAATGGT
switch fluorescence ratio: 1.01 ± 0.073

TTCTACGGTA
switch fluorescence ratio: 1.69 ± 0.68

TTCTACTTTG
switch fluorescence ratio: 1.035 ± 0.0074

TTCTACTTTT
switch fluorescence ratio: 1.01 ± 0.053

TTCTAGTCGT
switch fluorescence ratio: 0.971 ± 0.019

TTCTATTTCT
switch fluorescence ratio: 0.9872 ± 0.0039

TTCTCCGGGT
switch fluorescence ratio: 1.24 ± 0.32

TTCTCGATCT
switch fluorescence ratio: 1.03 ± 0.037

TTCTCTGTAA
switch fluorescence ratio: 2.66 ± 1.6

TTCTGAGGGA
switch fluorescence ratio: 1 ± 0.03

TTCTGAGGGG
switch fluorescence ratio: 1.03 ± 0.035

TTCTGCAGGG
switch fluorescence ratio: 0.997 ± 0.043

TTCTGCGCCC
switch fluorescence ratio: 2.52 ± 2

TTCTGGAAAA
switch fluorescence ratio: 1.05 ± 0.064

TTCTGGGGCA
switch fluorescence ratio: 1.05 ± 0.055

TTCTGGGTCT
switch fluorescence ratio: 0.9833 ± 0.0042

TTCTGTATTG
switch fluorescence ratio: 1.03 ± 0.035

TTCTTACGTC
switch fluorescence ratio: 1 ± 0.011

TTCTTCTCAA
switch fluorescence ratio: 1.15 ± 0.065

TTCTTGAGTA
switch fluorescence ratio: 0.984 ± 0.019

TTCTTGCTAC
switch fluorescence ratio: 1.78 ± 0.036

TTCTTGGACG
switch fluorescence ratio: 1.05 ± 0.16

TTCTTGGCGG
switch fluorescence ratio: 1 ± 0.07

TTCTTTGTGA
switch fluorescence ratio: 1 ± 0.054

TTCTTTTGTA
switch fluorescence ratio: 1.06 ± 0.076

TTGAAAAAAA
switch fluorescence ratio: 1.2 ± 0.27

TTGAAAAAAC
switch fluorescence ratio: 1.04 ± 0.074

TTGAAAAAGG
switch fluorescence ratio: 0.968 ± 0.018

TTGAAAAATT
switch fluorescence ratio: 1.03 ± 0.016

TTGAAAATGA
switch fluorescence ratio: 0.979 ± 0.016

TTGAACCCGA
switch fluorescence ratio: 1.01 ± 0.023

TTGAAGAAAA
switch fluorescence ratio: 1.97 ± 1.3

TTGAAGGCAA
switch fluorescence ratio: 1.59 ± 0.076

TTGAAGGGGT
switch fluorescence ratio: 1.08 ± 0.1

TTGAAGGGTT
switch fluorescence ratio: 0.9978 ± 0.0033

TTGAAGTAAG
switch fluorescence ratio: 0.994 ± 0.019

TTGAATGAAT
switch fluorescence ratio: 1.015 ± 0.0031

TTGAATGCAT
switch fluorescence ratio: 0.969 ± 0.13

TTGAATTAAG
switch fluorescence ratio: 0.982 ± 0.032

TTGAATTATT
switch fluorescence ratio: 1.03 ± 0.013

TTGAATTGCT
switch fluorescence ratio: 0.986 ± 0.032

TTGAATTTCT
switch fluorescence ratio: 0.992 ± 0.016

TTGACAAACG
switch fluorescence ratio: 1.1 ± 0.054

TTGACAAGGG
switch fluorescence ratio: 0.997 ± 0.015

TTGACAATGT
switch fluorescence ratio: 1.03 ± 0.095

TTGACAGGTT
switch fluorescence ratio: 1.15 ± 0.19

TTGACCAATA
switch fluorescence ratio: 1.12 ± 0.016

TTGACCTGAG
switch fluorescence ratio: 1.08 ± 0.013
